Test results as given in US20250152742A1, “COMPOSITIONS AND METHODS FOR NEUROLOGICAL DISEASES” (Trames Bio, Inc., priority 2022, published 2025).

Tested on: engineered chimeric receptor SEQ ID NO: 33 and its mutants (human α7-nAChR ligand binding domain / human GlyRα1 ion pore domain) in Lenti-X 293T cells
Assay: YFP fluorescence quenching anion reporter plate reader assay (percent quench, EC50)
Assay type: cell-based
Details: for YFP fluorescence quenching using CNL001 (percent quench): receptor named in row; for YFP fluorescence quenching using Facinicline, 30 nM fac: ligand Facinicline 30 nM; for YFP fluorescence quenching using Facinicline, 300 nM fac: ligand Facinicline 300 nM; for YFP fluorescence quenching using Facinicline, 30 uM fac: ligand Facinicline 30 uM; for YFP fluorescence quenching using TC-6987, 1 uM tc6987: ligand TC-6987 1 uM; for YFP fluorescence quenching using TC-6987, 10 uM tc6987: ligand TC-6987 10 uM; for YFP fluorescence quenching using TC-6987, 500 uM tc6987: ligand TC-6987 500 uM; for YFP fluorescence quenching using Varenicline, 3 nM var: ligand Varenicline 3 nM; for YFP fluorescence quenching using Varenicline, 30 nM var: ligand Varenicline 30 nM; for YFP fluorescence quenching using Varenicline, 300 nM var: ligand Varenicline 300 nM; for YFP fluorescence quenching using Varenicline, 500 nM var: ligand Varenicline 500 nM; for YFP fluorescence quenching using Varenicline, 1 uM var: ligand Varenicline 1 uM
Method in brief: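 Lenti-X 293T cells co-expressing an anion-quenchable YFP were transiently transfected with receptor DNA, then ligand was added in NaI-substituted buffer (pH 7.2) after 30 min at 37 °C. Fluorescence was read about 2 min; percent quench = mean of last 10 s over 15 s pre-ligand baseline.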

[1] = 1 nM CNL001, first column so headed
[2] = 1 nM CNL001, second column so headed
[3] = 1 nM brd (TC-5619/Bradanicline)
[4] = 3 nM brd (TC-5619/Bradanicline)
[5] = 10 nM CNL001, first column so headed
[6] = 10 nM CNL001, second column so headed
[7] = 10 nM brd (TC-5619/Bradanicline)
[8] = 30 nM brd (TC-5619/Bradanicline)
[9] = 50 nM CNL001, first column so headed
[10] = 50 nM CNL001, second column so headed
[11] = 100 nM CNL001, first column so headed
[12] = 100 nM CNL001, second column so headed
[13] = 300 nM brd (TC-5619/Bradanicline)
[14] = 1 uM CNL001, first column so headed
[15] = 1 uM CNL001, second column so headed

B1: CODA1025: engineered receptor: R101F, L131G in SEQ ID NO: 33 (protein)
chain: MRCSPGGVWLALAASLLHVSLQGEFQRKLYKELVKNYNPLERPVANDSQPLTVYFSLSLLQIMDVDEKNQVLTTNIWLQMSWTDHYLQWNVSEYPGVKTVFFPDGQIWKPDILLYNSADERFDATFHTNVGVNSSGHCQYLPPGIFKSSCPMDLKNFPMDVQTCKLKFGSWSYGGWSLDLQMQEADISGYIPNGEWDLVGIPGKRSERFYECCKEPYPDVTFTVTMRRRMGYYLIQMYIPSLLIVILSWISFWINMDAAPARVGLGITTVLTMTTQSSGSRASLPKVSYVKAIDIWMAVCLLFVFSALLEYAAVNFVSRQHKELLRFRRKRRHHKSPMLNLFQEDEAGEGRFNFSAYGMGPACLQAKDGISVKGANNSNTTNPPPAPSKSPEEMRKLFIQRAKKIDKISRIGFPMAFLIFNMFYWIIYKIVRREDVHNQ
modifications: synthetic sequence of chimeric LGIC
YFP fluorescence quenching using CNL001 (percent quench) [1]: −18.527% | YFP fluorescence quenching using CNL001 (percent quench) [2]: −21.577% | YFP fluorescence quenching using TC-5619/Bradanicline (percent quench) [3]: −10.61% | YFP fluorescence quenching using TC-5619/Bradanicline (percent quench) [4]: 2.63% | YFP fluorescence quenching using CNL001 (percent quench) [5]: 14.063% | YFP fluorescence quenching using CNL001 (percent quench) [6]: 49.818% | YFP fluorescence quenching using TC-5619/Bradanicline (percent quench) [7]: 17.71% | YFP fluorescence quenching using TC-6683 (percent quench) (30 nM TC-6683): −1.645% | YFP fluorescence quenching using TC-5619/Bradanicline (percent quench) [8]: 68.48% | YFP fluorescence quenching using CNL001 (percent quench) [9]: 77.765% | YFP fluorescence quenching using CNL001 (percent quench) [10]: 79.23% | YFP fluorescence quenching using ABT-126 (percent quench) (50 nM abt (ABT-126)): −11.53% | YFP fluorescence quenching using CNL001 (percent quench) [11]: 80.544% | YFP fluorescence quenching using CNL001 (percent quench) [12]: 80.695% | YFP fluorescence quenching (percent quench) (100 nM CNL002): 12.48% | YFP fluorescence quenching using ABT-126 (percent quench) (100 nM abt (ABT-126)): −7.61% | YFP fluorescence quenching using AZD-0328 (percent quench) (100 nM azd0328): 6.26% | YFP fluorescence quenching using TC-6683 (percent quench) (300 nM TC-6683): 3.043% | YFP fluorescence quenching using ABT-126 (percent quench) (300 nM abt (ABT-126)): 6.55% | YFP fluorescence quenching using AZD-0328 (percent quench) (300 nM azd0328): 37.98% | YFP fluorescence quenching using TC-5619/Bradanicline (percent quench) [13]: 75.12% | YFP fluorescence quenching using CNL001 (percent quench) [14]: 81.191% | YFP fluorescence quenching using CNL001 (percent quench) [15]: 82.385% | YFP fluorescence quenching (percent quench) (1 uM CNL002): 46.04% | YFP fluorescence quenching using ABT-126 (percent quench) (1 uM abt (ABT-126)): 25.08% | YFP fluorescence quenching using TC-6683 (percent quench) (3 uM TC-6683): 0.082% | YFP fluorescence quenching (percent quench) (10 uM ach (acetylcholine)): 12.57% | YFP fluorescence quenching (percent quench) (30 uM CNL002): 39.82% | YFP fluorescence quenching using TC-6683 (percent quench) (30 uM TC-6683): 2.449% | YFP fluorescence quenching using AZD-0328 (percent quench) (30 uM azd0328): 79.31% | YFP fluorescence quenching (percent quench) (50 uM ach (acetylcholine)): −3.46% | YFP fluorescence quenching using TC-6683 (percent quench) (100 uM TC-6683): 10.437% | YFP fluorescence quenching (percent quench) (100 uM ach (acetylcholine)): 12.65% | YFP fluorescence quenching (percent quench) (300 uM ach (acetylcholine)): −6.96% | YFP fluorescence quenching (percent quench) (500 uM ach (acetylcholine)): −6.77% | YFP fluorescence quenching (percent quench) (1 mM ach (acetylcholine)): 19.42% | YFP fluorescence quenching (percent quench) (3 mM ach (acetylcholine)): 65.06% | YFP fluorescence quenching using Facinicline, 30 nM fac: −8.99 | YFP fluorescence quenching using Facinicline, 300 nM fac: 10.21 | YFP fluorescence quenching using Facinicline, 30 uM fac: 78.24 | YFP fluorescence quenching using TC-6987, 1 uM tc6987: −13.32 | YFP fluorescence quenching using TC-6987, 10 uM tc6987: 43.71 | YFP fluorescence quenching using TC-6987, 500 uM tc6987: 53.98 | YFP fluorescence quenching using Varenicline, 3 nM var (first column): 48.074 | YFP fluorescence quenching using Varenicline, 3 nM var (second column): 60.978 | YFP fluorescence quenching using Varenicline, 30 nM var (first column): 70.023 | YFP fluorescence quenching using Varenicline, 30 nM var (second column): 69.433 | YFP fluorescence quenching using Varenicline, 300 nM var (first column): 78.989 | YFP fluorescence quenching using Varenicline, 300 nM var (second column): 79.21 | YFP fluorescence quenching using Varenicline, 500 nM var (first column): 79.212 | YFP fluorescence quenching using Varenicline, 500 nM var (second column): 79.771 | YFP fluorescence quenching using Varenicline, 1 uM var (first column): 79.538 | YFP fluorescence quenching using Varenicline, 1 uM var (second column): 80.577

B2: CODA1027: engineered receptor: R101F, L131D in SEQ ID NO: 33 (protein)
chain: MRCSPGGVWLALAASLLHVSLQGEFQRKLYKELVKNYNPLERPVANDSQPLTVYFSLSLLQIMDVDEKNQVLTTNIWLQMSWTDHYLQWNVSEYPGVKTVFFPDGQIWKPDILLYNSADERFDATFHTNVDVNSSGHCQYLPPGIFKSSCPMDLKNFPMDVQTCKLKFGSWSYGGWSLDLQMQEADISGYIPNGEWDLVGIPGKRSERFYECCKEPYPDVTFTVTMRRRMGYYLIQMYIPSLLIVILSWISFWINMDAAPARVGLGITTVLTMTTQSSGSRASLPKVSYVKAIDIWMAVCLLFVFSALLEYAAVNFVSRQHKELLRFRRKRRHHKSPMLNLFQEDEAGEGRFNFSAYGMGPACLQAKDGISVKGANNSNTTNPPPAPSKSPEEMRKLFIQRAKKIDKISRIGFPMAFLIFNMFYWIIYKIVRREDVHNQ
modifications: synthetic sequence of chimeric LGIC
YFP fluorescence quenching using CNL001 (percent quench) [1]: 24.049% | YFP fluorescence quenching using CNL001 (percent quench) [2]: 36.755% | YFP fluorescence quenching using TC-5619/Bradanicline (percent quench) [3]: −10.07% | YFP fluorescence quenching using TC-5619/Bradanicline (percent quench) [4]: −0.8% | YFP fluorescence quenching using CNL001 (percent quench) [5]: 52.927% | YFP fluorescence quenching using CNL001 (percent quench) [6]: 61.449% | YFP fluorescence quenching using TC-5619/Bradanicline (percent quench) [7]: 1.74% | YFP fluorescence quenching using TC-6683 (percent quench) (30 nM TC-6683): 1.189% | YFP fluorescence quenching using TC-5619/Bradanicline (percent quench) [8]: 53.95% | YFP fluorescence quenching using CNL001 (percent quench) [9]: 67.308% | YFP fluorescence quenching using CNL001 (percent quench) [10]: 68.77% | YFP fluorescence quenching using ABT-126 (percent quench) (50 nM abt (ABT-126)): −11.89% | YFP fluorescence quenching using CNL001 (percent quench) [11]: 69.049% | YFP fluorescence quenching using CNL001 (percent quench) [12]: 71.613% | YFP fluorescence quenching (percent quench) (100 nM CNL002): 7.75% | YFP fluorescence quenching using ABT-126 (percent quench) (100 nM abt (ABT-126)): −16.07% | YFP fluorescence quenching using AZD-0328 (percent quench) (100 nM azd0328): −4.76% | YFP fluorescence quenching using TC-6683 (percent quench) (300 nM TC-6683): 0.939% | YFP fluorescence quenching using ABT-126 (percent quench) (300 nM abt (ABT-126)): −11.21% | YFP fluorescence quenching using AZD-0328 (percent quench) (300 nM azd0328): −7.52% | YFP fluorescence quenching using TC-5619/Bradanicline (percent quench) [13]: 76.74% | YFP fluorescence quenching using CNL001 (percent quench) [14]: 71.811% | YFP fluorescence quenching using CNL001 (percent quench) [15]: 69.907% | YFP fluorescence quenching (percent quench) (1 uM CNL002): 61.97% | YFP fluorescence quenching using ABT-126 (percent quench) (1 uM abt (ABT-126)): −9.38% | YFP fluorescence quenching using TC-6683 (percent quench) (3 uM TC-6683): 1.327% | YFP fluorescence quenching (percent quench) (10 uM ach (acetylcholine)): −1.62% | YFP fluorescence quenching (percent quench) (30 uM CNL002): 65.77% | YFP fluorescence quenching using TC-6683 (percent quench) (30 uM TC-6683): −0.845% | YFP fluorescence quenching using AZD-0328 (percent quench) (30 uM azd0328): 74.9% | YFP fluorescence quenching (percent quench) (50 uM ach (acetylcholine)): −1.6% | YFP fluorescence quenching using TC-6683 (percent quench) (100 uM TC-6683): −3.136% | YFP fluorescence quenching (percent quench) (100 uM ach (acetylcholine)): −2.62% | YFP fluorescence quenching (percent quench) (300 uM ach (acetylcholine)): −6.12% | YFP fluorescence quenching (percent quench) (500 uM ach (acetylcholine)): −7.71% | YFP fluorescence quenching (percent quench) (1 mM ach (acetylcholine)): −5.73% | YFP fluorescence quenching (percent quench) (3 mM ach (acetylcholine)): 33.69% | YFP fluorescence quenching using Facinicline, 30 nM fac: −10.05 | YFP fluorescence quenching using Facinicline, 300 nM fac: −12.54 | YFP fluorescence quenching using Facinicline, 30 uM fac: 70.96 | YFP fluorescence quenching using TC-6987, 1 uM tc6987: 0.88 | YFP fluorescence quenching using TC-6987, 10 uM tc6987: 56.27 | YFP fluorescence quenching using TC-6987, 500 uM tc6987: 71.3 | YFP fluorescence quenching using Varenicline, 3 nM var (first column): −3.367 | YFP fluorescence quenching using Varenicline, 3 nM var (second column): −0.431 | YFP fluorescence quenching using Varenicline, 30 nM var (first column): −0.761 | YFP fluorescence quenching using Varenicline, 30 nM var (second column): 2.989 | YFP fluorescence quenching using Varenicline, 300 nM var (first column): 2.966 | YFP fluorescence quenching using Varenicline, 300 nM var (second column): 10.211 | YFP fluorescence quenching using Varenicline, 500 nM var (first column): 15.278 | YFP fluorescence quenching using Varenicline, 500 nM var (second column): 20.84 | YFP fluorescence quenching using Varenicline, 1 uM var (first column): 37.104 | YFP fluorescence quenching using Varenicline, 1 uM var (second column): 42.439
